Read-outs that look alike come from different tables or passages of the source.
Tests used:
HLA-DRB1*0301 = target: T1, HLA-DRB1*0301 (human); experiment: competitive MHC class II binding assay; competitor: control peptide Myco. tuberculosis/leprae hsp 65 2-16
T1 construct: human MHC class II allotype

HLA-DRB1*0701 = target: T2, HLA-DRB1*0701 (human); experiment: competitive MHC class II binding assay; competitor: control peptide Influenza haemagglutinin 307-319;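 also: each peptide was tested for its capacity to displace a known reference binder from human MHC class II allotypes, and its IC50 is expressed relative to that of the reference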
T2 construct: human MHC class II allotype

HLA-DRB1*1101 = target: T3, HLA-DRB1*1101 (human); experiment: as above
T3 construct: human MHC class II allotype

HLA-DRB1*1301 = target: T4, HLA-DRB1*1301 (human); experiment: competitive MHC class II binding assay; competitor: control peptide HLA-DQB1*0603 21-36
T4 construct: human MHC class II allotype

HLA-DRB1*1501 [1] = target: T5, HLA-DRB1*1501 (human); experiment: competitive MHC class II binding assay; competitor: control peptide Human myelin basic protein 85-99
T5 construct: human MHC class II allotype

HLA-DRB1*0101 = target: T6, HLA-DRB1*0101 (human); experiment: competitive MHC class II binding assay; competitor: control peptide Influenza haemagglutinin 307-319;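 also: each peptide was tested for its capacity to displace a known reference binder from human MHC class II allotypes, and its IC50 is expressed relative to that of the reference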
T6 construct: human MHC class II allotype

HLA-DRB1*0401 = target: T7, HLA-DRB1*0401 (human); experiment: as above
T7 construct: human MHC class II allotype

DQA1*0102/DQB1*0602 = target: T8, DQA1*0102/DQB1*0602 (human, UniProt P01920 33-230, limits assumed); experiment: competitive MHC class II binding assay; competitor: control peptide Human Insulin B 1-15
T8 construct: human MHC class II allotype
T8 MHC II alpha: not shown
T8 MHC II beta: not shown

[2] = target: T9, DQA1*0102/DQB1*0602 (human), P01920
T9 chain 1: not shown
T9 chain 2: not shown

HLA-DRB1*1101 (human) = target: T10, HLA-DRB1*1101 (human)
T10 chain 1: not shown
T10 chain 2: not shown

HLA-DRB1*1501 (human) = target: T11, HLA-DRB1*1501 (human)
T11 chain 1: not shown
T11 chain 2: not shown

HLA-DRB1*0701 (human) = target: T12, HLA-DRB1*0701 (human)
T12 chain 1: not shown
T12 chain 2: not shown

HLA-DRB1*1501 [3] = target: T5, HLA-DRB1*1501; experiment: competitive MHC class II binding assay, high stringency screen; competitor: control peptide Myelin Basic Protein 85-99

Which “ratio of IC50 to that of the control peptide” value (“ratio of IC50” for short) (HLA-DRB1*0301) does the source give for TAIFQDTVRAEMTK [HDM48] here?
The value was 211 ratio.

And the “ratio of IC50” value (HLA-DRB1*0701)?
Its value is 15.7 ratio.

And the “ratio of IC50” value (HLA-DRB1*1101)?
The value was 13.6 ratio.

How did the “ratio of IC50” value (HLA-DRB1*1301) turn out when RNIQVRGLKQMKRVG [HDM34] was run?
Its value is 3.7 ratio.

What about the “ratio of IC50” value (HLA-DRB1*1101) of the same binder?
Its value is 3.38 ratio.

What about the “ratio of IC50” value (HLA-DRB1*1501 [1]) of the same binder?
Its value is 769 ratio.

How did the “ratio of IC50” value (HLA-DRB1*0101) turn out when RGKPFQLEAVFEANQNT [HDM21B] was run?
The value was 13.5 ratio.

What about the “ratio of IC50” value (HLA-DRB1*0401) of the same binder?
The value was 0.78 ratio.

And the “ratio of IC50” value (HLA-DRB1*1101)?
Its value is 4.1 ratio.

What does the source list for REALAQTHSAIAVI [HDM09A]?
ratio of IC50 to that of the control peptide (HLA-DRB1*0701): 0.49 ratio; ratio of IC50 to that of the control peptide (HLA-DRB1*1101): 21.1 ratio; ratio of IC50 to that of the control peptide (HLA-DRB1*1501 [1]): 200 ratio

LDMRNIQVRGLKQ [HDM33] was tested. Which “ratio of IC50” value (HLA-DRB1*1301) did it give?
Its value is 263 ratio.

What about the “ratio of IC50” value (HLA-DRB1*0701) of the same binder?
The value was 46.5 ratio.

And the “ratio of IC50” value (HLA-DRB1*1101)?
The value was 41.5 ratio.

Which “ratio of IC50” value (HLA-DRB1*0101) does the source give for KPFQLEAVFEANQNTK [HDM21A] here?
The value was 200 ratio.

What about the “ratio of IC50” value (HLA-DRB1*0401) of the same binder?
The value was 52.2 ratio.

And the “ratio of IC50” value (HLA-DRB1*1101)?
Its value is 10.3 ratio.

For RTVTPIRMQGGCG [HDM02], which “ratio of IC50” value (HLA-DRB1*1501 [1]) is on record?
The value was 80 ratio.

And the “ratio of IC50” value (DQA1*0102/DQB1*0602)?
The value was 0.03 ratio.

Which results are given for KPFQLEAVFEANQNT [HDM21]?
ratio of IC50 to that of the control peptide (HLA-DRB1*0101): 92 ratio; ratio of IC50 to that of the control peptide (HLA-DRB1*0401): 11.2 ratio; ratio of IC50 to that of the control peptide (HLA-DRB1*1101): 11.7 ratio

Which “ratio of IC50” value (HLA-DRB1*1501 [1]) does the source give for DTVRAEMTKVLAP [HDM49] here?
Its value is 671 ratio.

And the “ratio of IC50” value (DQA1*0102/DQB1*0602)?
The value was 1.7 ratio.

CIIHRGKPFQLEA (modifications not checked) [HDM20] was tested. Which ratio of IC50 to that of the control peptide [2] did it give?
Its ratio of IC50 to that of the control peptide is 2.37.

What about the ratio of IC50 to that of the control peptide (HLA-DRB1*1101 (human)) of the same binder?
The ratio of IC50 to that of the control peptide was 28.

And the ratio of IC50 to that of the control peptide (HLA-DRB1*1501 (human))?
Its ratio of IC50 to that of the control peptide is 242.

What about the ratio of IC50 to that of the control peptide (HLA-DRB1*0701 (human)) of the same binder?
Its ratio of IC50 to that of the control peptide is 1.1.

For DGVLACAIATHAKIR [HDM26A], which “ratio of IC50” value (HLA-DRB1*0101) is on record?
The value was 42.3 ratio.

What about the “ratio of IC50” value (HLA-DRB1*0701) of the same binder?
The value was 16.3 ratio.

And the “ratio of IC50” value (DQA1*0102/DQB1*0602)?
The value was 0.61 ratio.

Which results are given for DGLEVDVPGIDPNACH (purity 66.7%) [HDM23A]?
ratio of IC50 to that of the control peptide (HLA-DRB1*0301): 347 ratio; ratio of IC50 to that of the control peptide (DQA1*0102/DQB1*0602): 0.76 ratio

B1: Fel d 1 peptide EQVAQYKALPVVLENA (peptide)
peptide: EQVAQYKALPVVLENA
notes: said to have been tested in an earlier study
For B1, which “ratio of IC50” value (HLA-DRB1*1501 [3]) is on record?
The value was 0.97 ratio.

Which “ratio of IC50” value (HLA-DRB1*0301) does the source give for IDLRQMRTVTPIR [HDM01] here?
Its value is 19.2 ratio.

What about the “ratio of IC50” value (HLA-DRB1*0701) of the same binder?
Its value is 16 ratio.
